Data taken from US20070086956A1, “Method for accelerating the rate of mucociliary clearance” (BAYER AKTIENGESELLSCHAFT, priority 1998, published 2007).
“Also recorded” adds a separate entry of the source. Where two headings read alike, the source gives them in different places.

Columns and labels:
[1] = Stability to degradation on incubation; assay type: physicochemical; settings: 72-hours incubation at ambient temperature or at 37° C., neutral pH
[2] = system: human bronchial epithelial cell (HBE); assay: Short circuit current (Isc) in cultured human bronchial epithelial (HBE) cells, Ussing chamber; assay type: cell-based; settings: for sodium current: over a 90 minute period, FIG. 17
Procedure: Tertiary HBE cell monolayer grown to confluence were mounted in modified Ussing chambers, immersed in Krebs buffer (KBR) solution and bubbled with 95% O2/5% CO2 warmed to 37 C.
Cells were left to equilibrate for 20 minutes before calibrating for background noise and fluid resistance. Transepithelial potential difference was then clamped to 0 mV using a WPI EVC 4000 voltage clamp. Ag/AgCl electrodes were used to monitor Isc. […] Once a response to amiloride was seen, it was washed out with KBR solution. […] 90 minutes following agent treatment, amiloride (10 uM) was added. Once the current was stable forskolin (10 uM) and then bumetanide (100 uM) was added.
Tertiary HBE cell monolayers grown to confluence were mounted in modified Ussing chambers, immersed in Krebs buffer (KBR) solution and bubbled with 95% O2/5% CO2 warmed to 37 C.
Cells were left to equilibrate for 20 minutes before calibrating for background noise and fluid resistance. Transepithelial potential difference was then clamped to 0 mV using a WPI EVC 4000 voltage clamp. Ag/AgCI electrodes were used to monitor Isc. […] Once a response to amiloride was seen, it was washed out with KBR solution. […] 90 minutes following agent treatment, amiloride (10 uM) was added.

[3] = system: human CF bronchial epithelial cells; assay: Short circuit current (Isc) in cultured human cystic fibrosis bronchial epithelial cells; assay type: cell-based
Procedure: HBE cells were isolated from CF patient lung transplant tissue and grown in collagen coated flasks for one week. The cells were then passaged and seeded onto collagen coated Costar Transwell filters (0.33 cm2) and grown in DMEM/F12 media supplemented with 2% Ultroser G. Cells were grown at an air liquid interface and used 2 to 4 weeks after seeding:
Cells on the Transwell filters were mounted in modified Costar Ussing chambers and studied under Isc conditions. […] Isc was recorded for 100 minutes and then the apical bath fluid was exchanged with fresh buffer. Trypsin (100 BAEE units/mL) was added to the apical side and Isc recorded for 10 minutes. Amiloride (10 uM) was then added to the apical side and Isc was recorded for a further 10 minutes.
HBE cells were isolated from CF patient lung transplant tissue and grown in collagen coated flasks for one week. The cells were then passaged and seeded onto collagen coated Costar Transwell filters (0.33 cm^2) and grown in DMEM/F12 media supplemented with 2% Ultroser G. Cells were grown at an air liquid interface and used 2 to 4 weeks after seeding.
Cells on the Transwell filters were mounted in modified Costar Ussing chambers and studied under Isc conditions. […] Isc was recorded for 90 minutes and then amiloride (10 uM) was added and Isc was recorded for a further 10 minutes. The apical bath fluid was then exchanged with fresh buffer, and Isc was recorded for a further 15 minutes. Trypsin (1 uM) was added to the apical side and Isc recorded for 15 minutes. Amiloride (10 uM) was then added to the apical side and Isc was recorded for a further 10 minutes.

[4] = system: guinea pig trachea; assay: Tracheal mucus velocity (TMV) in the guinea-pig; assay type: in vivo; settings: 5 ug tracheal instillation; 1.5 to 2.5 hours following administration; FIG. 16(c)
Procedure: The aim of this study was to investigate the effect of the Kunitz family serine protease inhibitor Bikunin on guinea-pig tracheal mucus velocity 1.5 hours post treatment. This agent was delivered into the cephalad trachea by topical instillation. TMV was monitored 1.5 hours later for 60 mins. The procedure used in this Example is described in Newton et al. in “Cila, Mucus and Mucociliary Interactions,” Ed., Baum, G. L. et al., Marcel Dekker, New York, 1998; Newton et al., Ped. Pulm. S17, Abs. 364, 1998). […]
TMV was monitored using a lead collimated miniature Beta particle detector probe arranged to detect the radioactivity emitted from an injected aliquot of ^32P-labelled Saccharomyces cerevisiae as it was transported on the tracheal mucociliary layer of an anaesthetized guinea pig (Newton and Hall 1998) FIG. 16(a) illustrates the arrangement of the syringe and beta probe. FIG. 16(b) illustrates the counts detected by the probe as the ^32P-labelled S. cerevisiae is transported along the tracheal mucociliary layer. […]
The aim of this comparative study was to investigate the effect of hypertonic saline (14.4%×5 min) on guinea-pig tracheal mucus velocity. […] TMV was monitored immediately and every 15 minutes for 30 minutes. […]

[5] = system: human bronchial epithelial cell (HBE); settings: cited from earlier work

B1: CHO Bikunin (1-170): Glycosylated placental bikunin (1-170), SEQ ID NO: 52, expressed in Chinese hamster ovary cells (Example 17) (protein, listed as Homo sapiens)
chain: ADRERSIHDFCLVSKVVGRCRASMPRWWYNVTDGSCQLFVYGGCDGNSNNYLTKEECLKKCATVTENATGDLATSRNAADSSVPSAPRRQDSEDHSSDMFNYEEYCTANAVTGPCRASFPRWYFDVERNSCNNFIYGGCRGNKNSYRSEEACMLRCFRQQENPPLPLGSK
modifications: glycosylated, CHO-expressed
stability to degradation [1]: stable to degradation | Forskolin induced cAMP-mediated chloride secretion and monolayer resistance ([2]; 70 nM): unaffected | sodium current ([2]; 70 nM): decreases sodium current | sodium current ([2]; 70 nM, listed as Bukinin): inhibited sodium current | inhibition of Na+ Isc ([2]; 5 ug.ml−1, normal HBE cells, n=6, further study): 84% | sodium short circuit current ([2]; 5 ug/mL, FIG. 20): decrease sodium short circuit current | Isc ([3]; 1 ug/mL): inhibited | Isc ([3]; 10 ug/mL in PBS, over a 90 minute period, FIG. 28(a)): inhibited Isc | Isc ([3]; 10 ug/mL in PBS, over a 90 minute period, FIG. 28(a), listed as CHO expressed Bikunin (1-170)): decreases sodium current | Isc ([3]; 1, 5, and 10 ug/mL, at 90 minutes after apical application, FIG. 28(b)): decreases sodium current | Isc ([3]; 1, 5, and 10 ug/mL, at 90 minutes after apical application, FIG. 28(b), listed as bikunin (1-170)): inhibited Isc | TMV [4]: increased TMV; also recorded: sustained increase in TMV | inhibition of the baseline Isc ([5]; 70 nM, in 90 minutes (McAulay et al 1998)): 58% | inhibition of Na+ Isc ([5]; 1.5 ug.ml−1: 70 nM, normal HBE cells, n=5-8 (McAulay et al 1998)): 54%
